Measurements reported in paper PMC11653685, “Crystal structure of Alzheimer's disease phospholipase D3 provides a molecular basis for understanding its normal and pathological functions” (The Febs Journal, 2024).

Target: the molecule itself
Assay: crystal structure; hPLD3 luminal domain with the hexa-His tag left on; crystals grown at 20 °C in 0.17 M ammonium sulfate, 15% glycerol, 25% PEG 4000; 2.3 Å; two molecules in the asymmetric unit

B1: human phospholipase D3 (hPLD3) luminal domain, residues N71-L490 (domain or fragment, UniProt Q8IV08 71-490, looked up)
chain: NQRPAPCYDPCEAVLVESIPEGLDFPNASTGNPSTSQAWLGLLAGAHSSLDIASFYWTLTNNDTHTQEPSAQQGEEVLRQLQTLAPKGVNVRIAVSKPSGPQPQADLQALLQSGAQVRMVDMQKLTHGVLHTKFWVVDQTHFYLGSANMDWRSLTQVKELGVVMYNCSCLARDLTKIFEAYWFLGQAGSSIPSTWPRFYDTRYNQETPMEICLNGTPALAYLASAPPPLCPSGRTPDLKALLNVVDNARSFIYVAVMNYLPTLEFSHPHRFWPAIDDGLRRATYERGVKVRLLISCWGHSEPSMRAFLLSLAALRDNHTHSDIQVKLFVVPADEAQARIPYARVNHNKYMVTERATYIGTSNWSGNYFTETAGTSLLVTQNGRGGLRSQLEAIFLRDWDSPYSHDLDTSADSVGNACRLL
modifications: N-linked GlcNAc at N236 and N284 (seen in the electron density)
notes: also called soluble form of the enzyme; source: Expi293 GnTI- cells, transfected, secreted; purified from culture supernatant (HisTrap excel, Superdex 200 SEC); not shown: His6, N-terminal, kept
In the case of B1, the “stoichiometry N” value is reported as 2.
